Source: the supplement of paper PMC10266784

B1: library; numbered along this chain (parent)
chain: MAAAAAAAAEQQSSNGPVKKSMREKAVERRSVNKEHNSNFKAGYIPIDEDRLHKTGLRGRKGNLAICVIILLFILAVINLIITLVIWAVIRIGPNGCDSMEFHESGLLRFKQVSDMGVIHPLYKSTVGGRRNENLVITGNNQPIVFQQGTTKLSVENNKTSITSDIGMQFFDPRTQNILFSTDYETHEFHLPSGVKSLNVQKASTERITSNATSDLNIKVDGRAIVRGNEGVFIMGKTIEFHMGGNMELKAENSIILNGSVMVSTTRLPSSSSGDQLGSGDWVRYKLCMCADGTLFKVQVTSQNMGCQISDNPCGNTH

Variants of: B1
Test: SGCB cell-surface expression functional score (HA stain, bin4 vs bin1, normalised to synonymous) (log10 ratio); higher = more cell-surface SGCB (functional)
Method in brief: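 Human beta-sarcoglycan, tagged with HA and fused to YFP, was built into codon-saturation libraries and delivered by lentivirus at MOI <0.1 into HEK293 cells that stably express alpha-, gamma- and delta-sarcoglycan. After 72 hours, YFP-positive cells were sorted and grown for 5–7 days, then stained on ice with Alexa Fluor 647 anti-HA, fixed, sorted into four 5% intensity bins and amplicon-sequenced. Each variant's functional score is the log ratio of its frequency in the highest bin to that in the lowest bin, taken as the median across codons and transductions. Transductions were done in duplicate, and synonymous variants were scaled per section to mean 0, SD 0.5.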

Variant	SGCB cell-surface expression functional score (log10)
MAAAAAAAAEQQSSNGPVKKSMREKAVERRSVNKEHNSNFKAGYIPIDEDRLWKTGLRGRKGNLAICVIILLFILAVINLIITLVIWAVIRIGPNGCDSMEFHESGLLRFKQVSDMGVIHPLYKSTVGGRRNENLVITGNNQPIVFQQGTTKLSVENNKTSITSDIGMQFFDPRTQNILFSTDYETHEFHLPSGVKSLNVQKASTERITSNATSDLNIKVDGRAIVRGNEGVFIMGKTIEFHMGGNMELKAENSIILNGSVMVSTTRLPSSSSGDQLGSGDWVRYKLCMCADGTLFKVQVTSQNMGCQISDNPCGNTH [H53W]	-0.6
MAAAAAAAAEQQSSNGPVKKSMREKAVERRSVNKEHNSNFKAGYIPIDEDRLHKTGLRGRKGNLAICVIILLVILAVINLIITLVIWAVIRIGPNGCDSMEFHESGLLRFKQVSDMGVIHPLYKSTVGGRRNENLVITGNNQPIVFQQGTTKLSVENNKTSITSDIGMQFFDPRTQNILFSTDYETHEFHLPSGVKSLNVQKASTERITSNATSDLNIKVDGRAIVRGNEGVFIMGKTIEFHMGGNMELKAENSIILNGSVMVSTTRLPSSSSGDQLGSGDWVRYKLCMCADGTLFKVQVTSQNMGCQISDNPCGNTH [F73V]	-0.23
MAAAAAAAAEQQSSNGPVKKSMREKAVERRSVNKEHNSNFKAGYIPIDEDRLHKTGLRGRKGNLAICVIILLFILAVINLIITLVIWAVIRIGPNGCDSMEFHESGLLRFKQVSDMGVIHPLYKSTVGGRRNENLVITGNNQPIVFQQGTTKLSVENNKTSITSDIGMQFFDPRTQNILFSTDYETHEFHLPSGVKSLNVQKASFERITSNATSDLNIKVDGRAIVRGNEGVFIMGKTIEFHMGGNMELKAENSIILNGSVMVSTTRLPSSSSGDQLGSGDWVRYKLCMCADGTLFKVQVTSQNMGCQISDNPCGNTH [T205F]	-0.9
MAAAAAAAAEQQSSNGPVKKSMREKAVERRSVNKEHNSNFKAGYIPIDEDRLHKTGLRERKGNLAICVIILLFILAVINLIITLVIWAVIRIGPNGCDSMEFHESGLLRFKQVSDMGVIHPLYKSTVGGRRNENLVITGNNQPIVFQQGTTKLSVENNKTSITSDIGMQFFDPRTQNILFSTDYETHEFHLPSGVKSLNVQKASTERITSNATSDLNIKVDGRAIVRGNEGVFIMGKTIEFHMGGNMELKAENSIILNGSVMVSTTRLPSSSSGDQLGSGDWVRYKLCMCADGTLFKVQVTSQNMGCQISDNPCGNTH [G59E]	-0.2
MAAAAAAAAEQQSSNGPVKKSMREKAVERRSVNKEHNSNFKAGYIPIDEDRLHKTGLRGRKGNLAICVIILLFILAVINLIITLVIWAVIRIGPNGCDSMEFHESGLLRKKQVSDMGVIHPLYKSTVGGRRNENLVITGNNQPIVFQQGTTKLSVENNKTSITSDIGMQFFDPRTQNILFSTDYETHEFHLPSGVKSLNVQKASTERITSNATSDLNIKVDGRAIVRGNEGVFIMGKTIEFHMGGNMELKAENSIILNGSVMVSTTRLPSSSSGDQLGSGDWVRYKLCMCADGTLFKVQVTSQNMGCQISDNPCGNTH [F110K]	-0.57
MAAAAAAAAEQQSSNGPVKKSMREKAVERRSVNKEHNSNFKAGYIPIDEDRLHKTGLRGRKGNLAICVIILLFILAVINLIITLVIWAVIRIGPNGCDSMEFHESGLLRFKQVSDMGVIHPLYKSTVGGRRNENLVITGNNQPIVFQQGTTKLSVENNKTSITSDIGMQFFDPRTQNILFSTDYETHEFHLPSGVKSLNVQKASTERITSNATSDLNIKVDGRAIVRGNEGVFIMGKTIEFHMGGNMELKARNSIILNGSVMVSTTRLPSSSSGDQLGSGDWVRYKLCMCADGTLFKVQVTSQNMGCQISDNPCGNTH [E252R]	0.34
MAAAAAAAAEQQSSNGPVKKSMREKAVERRSVNKEHNSNFKAGYIPIDEDRLHKTGLRGRKGNLAICVIILLFILAVINLIITLVIWAVIRIGPNGCDSMEFHESGLLRFKQVSDMGVIHPLYKSTVGGRRNENLVITGNNQPIVFQQGTTKLSVENNKTSITSDIGMQFFDPRTQNILFSTDYETHEFHLPSGVKSLNVQKASTERITSNATSDLNIKVDGRAIVRGNEVVFIMGKTIEFHMGGNMELKAENSIILNGSVMVSTTRLPSSSSGDQLGSGDWVRYKLCMCADGTLFKVQVTSQNMGCQISDNPCGNTH [G231V]	-1.02
MAAAAAAAAEQQSSNGPVKKSMREKAVERRSVNKEHNSNFKAGYIPIDEDRLHKTGLRGRKGNLAICVIILLFILAVINLIITLVIWAVIRIGPNGCDSMEFHESGLLRFKQVSDMGVIHPLYKSTVGGRRNENLVITGNNQPIVFQQGTTKLSVENNKTSITSDIGMQFFDPRTQNILFSTDPETHEFHLPSGVKSLNVQKASTERITSNATSDLNIKVDGRAIVRGNEGVFIMGKTIEFHMGGNMELKAENSIILNGSVMVSTTRLPSSSSGDQLGSGDWVRYKLCMCADGTLFKVQVTSQNMGCQISDNPCGNTH [Y184P]	-0.93
MAAAAAAAAEQMSSNGPVKKSMREKAVERRSVNKEHNSNFKAGYIPIDEDRLHKTGLRGRKGNLAICVIILLFILAVINLIITLVIWAVIRIGPNGCDSMEFHESGLLRFKQVSDMGVIHPLYKSTVGGRRNENLVITGNNQPIVFQQGTTKLSVENNKTSITSDIGMQFFDPRTQNILFSTDYETHEFHLPSGVKSLNVQKASTERITSNATSDLNIKVDGRAIVRGNEGVFIMGKTIEFHMGGNMELKAENSIILNGSVMVSTTRLPSSSSGDQLGSGDWVRYKLCMCADGTLFKVQVTSQNMGCQISDNPCGNTH [Q12M]	-0.09
MAAAAAAAAEQQSSNGPVKKSMREKAVERRSVNKEHNSNFKAGYIPIDEDRLHKTGLRGRKGNLAICVIILLFILAVINLIITLVIWAVIRIGPNGCDSMEFHESGLLRFKQVSDMGVIHPLYKSTVGGRRNENLVITGNKQPIVFQQGTTKLSVENNKTSITSDIGMQFFDPRTQNILFSTDYETHEFHLPSGVKSLNVQKASTERITSNATSDLNIKVDGRAIVRGNEGVFIMGKTIEFHMGGNMELKAENSIILNGSVMVSTTRLPSSSSGDQLGSGDWVRYKLCMCADGTLFKVQVTSQNMGCQISDNPCGNTH [N141K]	-0.5
MAAAAAAAAEQQSSNGPVKKSMREKAVERRSVNKEHNSNFKAGYIPIDEDRLHKTGLRGRKGNLAICVIILLFILAVINPIITLVIWAVIRIGPNGCDSMEFHESGLLRFKQVSDMGVIHPLYKSTVGGRRNENLVITGNNQPIVFQQGTTKLSVENNKTSITSDIGMQFFDPRTQNILFSTDYETHEFHLPSGVKSLNVQKASTERITSNATSDLNIKVDGRAIVRGNEGVFIMGKTIEFHMGGNMELKAENSIILNGSVMVSTTRLPSSSSGDQLGSGDWVRYKLCMCADGTLFKVQVTSQNMGCQISDNPCGNTH [L80P]	-0.3
MAAAAAAAAEQQSSNGPVKKSMREKAVERRSVNKEHNSNFKAGYIPIDEDRLHKTGLRGRKGNLAICVIILLFILAVINLIITLVIWAVIRIGPNGCDSMEFHESGLLRFKQVSDMGVIHPLYKSTVGGRRNENLVITGNNQPIVFQQGTTKLSVENNKTSITSDIGMQDFDPRTQNILFSTDYETHEFHLPSGVKSLNVQKASTERITSNATSDLNIKVDGRAIVRGNEGVFIMGKTIEFHMGGNMELKAENSIILNGSVMVSTTRLPSSSSGDQLGSGDWVRYKLCMCADGTLFKVQVTSQNMGCQISDNPCGNTH [F170D]	-1.87
MAAAAAAAAEQQSSNGPVKKSMREKAVERRSVNKEHNSNFKAGYIPIDEDRLHKTGLRGRKGNLAICVIILLFILAVINLIITLVIWAVIRIGPNGCDSMEFHESGLLRFKQVSDMGVIHPLYKSTVGGRRNENLVITGNNQPIVFQQGTTKLSVENNKTSITSDIGMQFFDPRTQNILFSTDYETHEFHLPSGVKSLNVQKASTERITSNATSDLNIKVDGRAIVRGNEHVFIMGKTIEFHMGGNMELKAENSIILNGSVMVSTTRLPSSSSGDQLGSGDWVRYKLCMCADGTLFKVQVTSQNMGCQISDNPCGNTH [G231H]	-0.09
MAAAAAAAAEQQSSNGPVKKSMREKAVERRSVNKEHESNFKAGYIPIDEDRLHKTGLRGRKGNLAICVIILLFILAVINLIITLVIWAVIRIGPNGCDSMEFHESGLLRFKQVSDMGVIHPLYKSTVGGRRNENLVITGNNQPIVFQQGTTKLSVENNKTSITSDIGMQFFDPRTQNILFSTDYETHEFHLPSGVKSLNVQKASTERITSNATSDLNIKVDGRAIVRGNEGVFIMGKTIEFHMGGNMELKAENSIILNGSVMVSTTRLPSSSSGDQLGSGDWVRYKLCMCADGTLFKVQVTSQNMGCQISDNPCGNTH [N37E]	0.3
MAAAAAAAAEQQSSNGPVKKSMREKAVERRSVNKEHNSNFKAGYIPIDEDRLHKTGLRGRKGNLAICVIILLFILAVINLIITLVIWAVIRIGPNGCDSMEFHESGLLRFKQVSDMGVIHPLYKSTVGGRRNENLVITGNNQPIVFQQGTTKLSVENNKTSITSDIGMQFFDPRTQNILFSTDYETHEFHLPSGVKSLNVQKASTERITSNATSDLNIKVDGRAIVRGNEGVFIMGKTIEFHMGGNMELKAENSIILNGSVMVSTTVLPSSSSGDQLGSGDWVRYKLCMCADGTLFKVQVTSQNMGCQISDNPCGNTH [R267V]	0.49
MAAAAAAAAEQQSSNGPVKKSMREKAVERRSVNKEHNSNFNAGYIPIDEDRLHKTGLRGRKGNLAICVIILLFILAVINLIITLVIWAVIRIGPNGCDSMEFHESGLLRFKQVSDMGVIHPLYKSTVGGRRNENLVITGNNQPIVFQQGTTKLSVENNKTSITSDIGMQFFDPRTQNILFSTDYETHEFHLPSGVKSLNVQKASTERITSNATSDLNIKVDGRAIVRGNEGVFIMGKTIEFHMGGNMELKAENSIILNGSVMVSTTRLPSSSSGDQLGSGDWVRYKLCMCADGTLFKVQVTSQNMGCQISDNPCGNTH [K41N]	0.25
MAAAAAAAAEQQSSNGPVKKSMREKAVERRSVNKEHNSNFKAGYIPIDEDRLHKTGLRGRKGNLAICVIILLFILAVINLIITLVIWAVIRIGPNGCDSMEFHESGLLRFKQVSDMGVIHPLYKSTVGGRRNENLVITGNNQPIVFQQGTTKLSVENNKTSITSDIGMQFFDPRTQNILFSTDYETHEFHLPSGVKSLNVQKASTERATSNATSDLNIKVDGRAIVRGNEGVFIMGKTIEFHMGGNMELKAENSIILNGSVMVSTTRLPSSSSGDQLGSGDWVRYKLCMCADGTLFKVQVTSQNMGCQISDNPCGNTH [I208A]	-1.44
MAAAAAAAAEQQSSNGPVKKSMREKAVERRSVNKEHNSNFKAGYIPIDEDRLHKTGLRGRKGNLAICVIILLFILAVINLIITLVINAVIRIGPNGCDSMEFHESGLLRFKQVSDMGVIHPLYKSTVGGRRNENLVITGNNQPIVFQQGTTKLSVENNKTSITSDIGMQFFDPRTQNILFSTDYETHEFHLPSGVKSLNVQKASTERITSNATSDLNIKVDGRAIVRGNEGVFIMGKTIEFHMGGNMELKAENSIILNGSVMVSTTRLPSSSSGDQLGSGDWVRYKLCMCADGTLFKVQVTSQNMGCQISDNPCGNTH [W87N]	0.58
MAAAAAAAAEQQSSNGPVKKSMREKAVERRSVNKEHNSNFKAGYIPIDEDRLHKTGLRGRKGNLAICVIILLFILAVINLIITLVIWAVIRIGPNGCDSMLFHESGLLRFKQVSDMGVIHPLYKSTVGGRRNENLVITGNNQPIVFQQGTTKLSVENNKTSITSDIGMQFFDPRTQNILFSTDYETHEFHLPSGVKSLNVQKASTERITSNATSDLNIKVDGRAIVRGNEGVFIMGKTIEFHMGGNMELKAENSIILNGSVMVSTTRLPSSSSGDQLGSGDWVRYKLCMCADGTLFKVQVTSQNMGCQISDNPCGNTH [E101L]	-0.35
